Results taken from the nanobody polyreactivity screen of Harvey et al. (2022).

assay: yeast display, Sf9 membrane polyspecificity reagent, FACS + sequencing; frameworks hold sequencing errors
In short: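 A nanobody's polyreactivity label depends on the gate it was sorted from. Yeast display cells were stained with 10% biotinylated, detergent-solubilized Sf9 membrane reagent for 1 hour at 4 °C, enriched on streptavidin microbeads and sorted by FACS. The low and high (top ~1%) gates were set on anti-HA fluorescence for expression and streptavidin fluorescence for reagent binding.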

Sequence | polyreactivity (PSR sort gate)
QVQLVESGGGLVQAGGSLRLSSAASGSIFLYNAMGWYRQAPGKERELVAAISGSGGRTNYADSVKGRFTISRDHAKNTVYLQMNSLKPEVTAVYYCAAGYHVFRLGYARIPLYDYWGQGTQVTVSS | low polyreactivity
QVQLVESGGGLVQAGGSLRLSSAASGSIFWHYAMGRYRQAHGKERQLVAGISTRGGITYFADSVKGRFTISRDNAKNTVYLQMNSLKPEDTAVYYCNGVLFFQWFWTYDDYWGQGTQVTVSS | low polyreactivity
QVQLVESGGGLVQAGGSLRLSSAASGSIIKYYAMGWYRQAPGKERELVAAINKSGGTTYYADSVKGRFTISRDNAQNPVYLQMNSLKPEDTAVYYCATDNTVVYQPGNMDFWGQGTQVTVSS | low polyreactivity
QVQLVESGGGLVQAGGSLRLSSAASGSILPLYAMGWYRQAPGKERELVADISWSGGDTYYADSVKGRFTISRDKAKNTVYLQMNSLKPEDTAVYYCNSRLDYSTYESSPVTRKRVYWGQGTQVTVSS | low polyreactivity
QVQLVESGGGLVQAGGSLRLSSAASGSILWQYAMGWYRQAPGTERELVAAMTYSGGSTHYADSVKGRFTISRDNAKNTVYLQMNSLKPEDTAVYYCAAGYWYRYAALRYDHWGQGTQVTVSS | low polyreactivity
QVQLVESGGGLVQAGGSLRLSSAASGSTFGYYAMGWYRQAPGKERELVAVIRSRTGDTNYADSVKGRFTISRDNAKNTVYLQMNSQKPEDTAVYYCNAALWYGSTIYSYRYGYWGHGTQVTVSS | high polyreactivity
QVQLVESGGGLVQAGGSLRLSSAASGSTFRYNALGWYRQAPGKERELVAAISSSGGSTRYADSVKGRFTISRDNEKYTDYLQMNSLKPEDTAVYYCDVRFYDWRYYYWGQGTQVTVSS | high polyreactivity
QVQLVESGGGLVQAGGSLRLSSAASGSTFVWYAMGWYRQAPGKERELVASISGSGGRTYYADSVKGRFTISRDNAKNTVYLQMNSLKPEDTAVYYCAAYYRKTGYDYWGQGTQVTVSS | high polyreactivity
QVQLVESGGGLVQAGGSLRLSSAASGSTFYWYTMGWYRQAPGKERELVARISKRGGSTYYADSVKGRFTISRDNAKNTVYLQMNSLKPEDTAVYYCNATSRTVGFGYWGQGTQVTVSS | high polyreactivity
QVQLVESGGGLVQAGGSLRLSSAASGSTFYYYAMGWYRQAPGKERELVATISRSTARTFYADSVKGRFTISRDNEKNTVYLQMNSLKPEDTAVYYCAATSYVSVYPSYYRFGTYGYWGQGTQVTVSS | high polyreactivity
QVQLVESGGGLVQAGGSLRLSSAASGSTSRYYDMGWYRQSPGKVRELVAAITWSGGTTYYADSVKGRFTISRDNAKNTVYLQMNSLKPDDPAVYYCAADASYTYYEFVYWGQGTQVTVSS | low polyreactivity
QVQLVESGGGLVQAGGSLRLSSAASGYIFTPYAMGWYRQAPGKERELVAAISSSTVRTFYADSVKGRFTISRDNAKNTVYLQMNSLKPEDTAVYYCAARGYWGQGTQVTVSS | high polyreactivity
QVQLVESGGGLVQAGGSLRLSSAATGSIFRGNAIGWYRQAPWKELELVASISYSRGSTYYADSVKGRFTISRDNEKNTVYLQMNSVKPEETAVYYCARDYDAAYYLSEYIRSVEFDYWGQGTQVTVSS | low polyreactivity
QVQLVESGGGLVQAGGSLRLSSADSGRTFWDNTMGWYRQAPGKERELVAAISGGDSTYYADSVKGRFTISRDNAKNTVYLQMNSLKPEDTAVYYCAAAYATPTLYYYWGQGTQVTVSS | low polyreactivity
QVQLVESGGGLVQAGGSLRLSSADSGRTFYGNAMGWYRQSPGKERELVAAISKRGGNTYYADSVKWRFTISRDNAKNTVYLQMNSLKPEDTAVYYCARQARTPSSWYIYDSWGQGTQVTVSS | high polyreactivity
QVQLVESGGGLVQAGGSLRLSSADSGSIFVYNDMGWYRQAPGKERELVARIDWSGDRTYADSVKGRFTISRDNAKNTVYLQMNSLKPEDTAVYYCNADEWRWDEIIPYAVDYCGQGTQVTVSS | low polyreactivity
QVQLVESGGGLVQAGGSLRLSSAGSGSTLGFNAMGWYRQAPGKEREFVAGNSASGSSTYFADSVKGRFTISRDNAKNTVYLHINSLKTEDSAVYYFYARVRVRLGRNWSTYYYWGQGTEVTVSS | high polyreactivity
QVQLVESGGGLVQAGGSLRLSSASSGNILQGNAMGSYRQAPGKEMELVAAITSDGSTYADSVKGRFTISRDNAQNTVYLQMNSLKPEDTAVFYCNADGITSLPVTALDYWGQGTQVTVSS | low polyreactivity
QVQLVESGGGLVQAGGSLRLSSSASGSIFASNAMGWYRQEPGKERELVAAINSGDSTNYADSVKGRFTISRDNAKNTVYLQMNSLKPEDTAVYYCNAEYRYYQKTPVLYTNVEYDYWGQGTQVTVSS | low polyreactivity
QVQLVESGGGLVQAGGSLRLSWAASGFTFPAYPMGWYRQAPGKERELVASISSSGRTNYADSEKGRFTISRDNAKNTVYLEMYSLKPEDTAVYYCAALLKQRSTSYGYWGQGSQVTVSS | high polyreactivity
QVQLVESGGGLVQAGGSLRLSWAASGGTFYFNAMGWYLQAAGKEWELVATIRYSGGSTYYADSVKGRFTISRDNAKNTAYLQMNSLKPADTAVYYCNARPRYLSPYRPFKYNYWGQGTQVTVSS | high polyreactivity
QVQLVESGGGLVQAGGSLRLSWAASGITFYVYAMGWYRQAPGKERELVAAISRRGGSTSYADSVKGRFTISRDNAKNTVYLQMNSLKPEDTAVYYGAAGPFYGGIVRRYDYWGQGTQVTVSS | low polyreactivity

Sequence | polyreactivity (PSR sort gate)
QVQLVESGGGLVQAGGSLRLSWAASGLTFETYVMGWYRQAPGKERELVAAISSSGRTYYADSVKGRFTISRDNAKNTVYLQMNSLKPEDTAVYYCAARGREFGYWGQGTQVTVSS | high polyreactivity
QVQLVESGGGLVQAGGSLRLSWAASGRIFYGYTMGWYRQAPGKERELVASITIRGSRTYYADSVKGRCTISRDNAKNTVYLQINSLKPEDTAVYYCAADFVPARTVHRYDYWGQGTQVTVSS | low polyreactivity
QVQLVESGGGLVQAGGSLRLSWAASGRIPYNAMGWYRQAPGKERELVAAISRSGTRTYYADSVKGRFTISRDNAKNTVFFQMNSLKPEDTAVYYCAAEYTRSFYIYYRFGYWVQGTQVTVSS | high polyreactivity
QVQLVESGGGLVQAGGSLRLSWAASGRLFDGYAMGWYRQAPGTERELVATISSSGGATYYADSVKGRFTISRDNAKNTVYLQMNSLKPEDTAVYYCATAGSVSHWYSYFAFWERDYWGQGTQVTVSS | low polyreactivity
QVQLVESGGGLVQAGGSLRLSWAASGRTFGVYAMGWYRQAPGTERELVATITRSGGRTYYADSVKGRFTLSRDTAKNTVYLQMNSLKPEATAVYYCNAGHGSLRYNYWGQGTQVTVSS | high polyreactivity
QVQLVESGGGLVQAGGSLRLSWAASGRTFKSNAMGWYRPAPGKERELVAAISWGGGSTYYADSVKGRFTISRDNAKNTVYLQMNSLKPEDTAVYYCARRDIYGSYGFYTGGVDYWGQGTQVTVSS | low polyreactivity
QVQLVESGGGLVQAGGSLRLSWAASGRTFNRYVMGWYRQAPGKERELVAAISRSGTSTYYADSVKGRFTISRDNAKNTVYLQMNSLKPEDTAVYYCAREYQTVSFKNYYWGQGTQVTVSS | high polyreactivity
QVQLVESGGGLVQAGGSLRLSWAASGRTLKYNAMGWYRQAHGKERELVSAISYSGSSTYYADSVKGRFTISRDNAKNTVYLQMNSLKPEDTAVYYCNTARPTAAYDYWGQGTQVTVSS | low polyreactivity
QVQLVESGGGLVQAGGSLRLSWAASGSIFDENAMGLSRQAPGKERELVAAISRSTGSTYYADSVKGRFTISRDKAKNTVYVQMNSLKPEDTAVYYCNALTYLRGPPWYTLDYWGQGTQVTVSS | low polyreactivity
QVQLVESGGGLVQAGGSLRLSWAASGSIITSNGMGWYRQAPGKERELVAAITSGTSTYYADSVKGRFTISRDNAKNTVYLQMNSLKPEDTAVYYCAAGRWWVYRYARYYYWGQGTQVTVSS | high polyreactivity
QVQLVESGGGLVQAGGSLRLTCAASASNFVSYPMGWYRPAHGKERELVAAITSAGTTYYAYSVKGRFTISRDNAKNTVYLQMNTLKPEDTAVYYCNTDASFKRTRVSPETEYGYWGQGTQVTVSS | low polyreactivity
QVQLVESGGGLVQAGGSLRLTCAASGFIFGTYAMGWYRLSPGKERELVAAISSGGSTYYAYSVKGRFTISRDNAKYTVYLQMNSLKPEDTAVYYCAKEGGTYRIFNYWGQGTQVTLSS | low polyreactivity
QVQLVESGGGLVQAGGSLRLTCAASGFIFRKYTMGWYRQAPGKERELVATLDSSGGSTYYADSVKGRFTISRDNAKNTVYLQMNSLKPEDTAVYYCNADLRELSPWYWYSGEMDYWGQGTQVTVSS | low polyreactivity
QVQLVESGGGLVQAGGSLRLTCAASGFIFRSYAMGWYRQAPGKERELVAVISRRGVNTHYADSVKGRFTISRDNAKNTVYLQMNSLKPEDTAVYYCAKGLTALGDYWGQGTQVTVSS | high polyreactivity
QVQLVESGGGLVQAGGSLRLTCAASGFIFSKNAMGWYRQPPGKERELVAAIDTSGSSTYYAYSVKGRFTISRDNAKNSVYLQMISLKPEDTAVYYCNRDDYFFSRFDYWGQGTQVTVTS | low polyreactivity
QVQLVESGGGLVQAGGSLRLTCAASGFIFVRNAMGWYRQAPGKERDLVAAISSRGGRTYYADSVKGRFTISRDNAKYTVYLQMNRLKPEDTAVYYCNADRDTQGDGYDYWGQGTQVTVSS | high polyreactivity
QVQLVESGGGLVQAGGSLRLTCAASGFTFFVYAMGWYRQAPGKERELVASITFRSGTTYYADSVKGRFTISRDNAKNTVYLQMNSLKPEDTAVYYCAADSRRSSRGYGYYYWGQGTQVTVSS | high polyreactivity
QVQLVESGGGLVQAGGSLRLTCAASGFTFHVNTMGWYRQAPGKEMELVAAISWSGGSTYYADSVKGRFTISRDTAKKTVYLQMNSLNPEDTAVYYCNAVPVSYRGVYWGQGTQVTVSS | low polyreactivity
QVQLVESGGGLVQAGGSLRLTCAASGFTFRSYAMGWYRQAPGKEREWVAVISSSGGSTYYADSVKARFTISRDNAKNTVYLQMNSLKPEDTAVYYCNRRPATRAYLYDYWGQGTQVTGSS | high polyreactivity
QVQLVESGGGLVQAGGSLRLTCAASGFTFSYYTMGRYRQAPGKERELVAAISSGGSTYYADSVKGRFTISRDNAKNSVYLQMNSLKPEDTAVYYCNAYYGSYSPANGEYWGQGTQVTVSS | high polyreactivity
QVQLVESGGGLVQAGGSLRLTCAASGFTFYRYDMGWYRQAPGKERELVAAITNNGGNTYYADSVKGRFTISRDNAKNTVYLQMNSLKPDVTAVYYCATKRYYWRGYWGQGTQVSVSS | high polyreactivity
